B1: FBXO34 (parent)
chain: PRYREDPCKQCKKKYVKGDVSLCR
B2: WDFY1 (parent)
chain: FWNIKQMWDTKTLGLRQHHCRKCG

Variants of: B1
Assay: protein stability index of a GFP-peptide fusion (GPS, HEK-293T) (PSI 1-6); higher = more stable
Details: c terminus: a fixed tail appended
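Also: lentivirally expressed fusions sorted by FACS into six bins by GFP to DsRed ratio, PSI derived from sequencing read proportions per bin multiplied by bin number.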

Protein stability index of substitutions, site by site:
C11: E 3.91 | R 3.77 | Y 2.76 | P 3.99 | I 3.01 | D 4.4 | A 3.23 | S 4.07 | L 3.31 | N 4.14 | Q 3.75 | K 4.09 | H 3.68 | W 2.12 | T 3.57 | F 2.12 | V 3.11 | M 3.01 | G 3.91
Q10: G 3.31 | W 2.69 | K 2.81 | C 2.13 | R 2.75 | M 2.09 | P 3.13 | L 2.04 | F 1.77 | A 2.79 | S 3.13 | N 2.64 | I 2.13 | D 2.83 | H 2.39 | E 2.87 | V 3.28 | Y 2.72 | T 2.78
E5: S 2.58 | T 2.67 | P 2.77 | A 2.66 | N 2.58 | V 2.83 | Y 2.51 | G 2.68 | W 2.33 | D 2.94 | K 3.27 | C 2.7 | R 2.8 | I 2.46 | F 2.57 | Q 2.83 | M 2.66 | L 2.78 | H 2.76
K14: A 2.17 | L 2 | G 2.48 | V 2.2 | Q 2.59 | H 2.29 | N 2.54 | D 2.24 | S 2.45 | I 2.19 | W 2.22 | Y 2.12 | E 2.69 | T 2.92 | M 2.31 | R 2.88 | F 2.5 | C 1.84 | P 2.85
C8: R 3.81 | Q 3.87 | I 3.57 | F 3.15 | G 4.35 | K 3.88 | H 3.63 | S 3.82 | P 3.7 | W 3.02 | A 4.08 | D 4.16 | Y 3.33 | N 3.86 | V 3.61 | T 3.98 | L 3.71 | E 4.06 | M 2.95
V16: F 2.22 | I 2.5 | P 3.48 | K 2.75 | G 2.55 | Q 2.63 | E 2.81 | W 2.31 | A 3.11 | N 2.52 | C 3.63 | H 2.77 | T 2.74 | D 2.73 | R 3.4 | S 2.93 | L 2.98 | Y 2.65 | M 2.19
D6: S 2.5 | I 2.21 | K 3.06 | A 2.46 | C 2.61 | R 3.19 | T 2.61 | Y 2.3 | M 2.92 | H 2.61 | Q 3.71 | F 2.35 | G 2.48 | P 2.22 | V 2.58 | L 2.15 | W 1.98 | E 3.14 | N 1.92
P7: H 2.23 | Y 2.44 | A 2.8 | M 2.42 | N 2.94 | W 3.07 | T 2.18 | E 2.76 | C 2.26 | F 2.22 | V 2.19 | G 2.7 | R 2.31 | Q 2.23 | L 1.85 | D 2.85 | K 2.51 | S 2.69 | I 2.38
K13: H 2.35 | V 2.59 | F 2.55 | T 2.58 | C 2.23 | W 2.65 | A 2.51 | M 2.47 | E 2.69 | I 2.05 | P 1.68 | Q 2.36 | R 2.6 | L 2.94 | S 2.63 | G 2.68 | N 2.66 | D 2.63 | Y 2.16
K12: N 2.39 | R 3.54 | Y 2.46 | L 2.28 | M 2.18 | D 2.57 | V 2.31 | G 2.5 | F 1.79 | W 2.37 | E 2.86 | T 2.57 | A 2.52 | P 3.25 | Q 2.57 | H 2.76 | I 2.33 | C 1.58 | S 2.54
K9: L 2.42 | T 2.66 | G 2.59 | E 3.33 | Y 2.6 | N 2.46 | Q 2.72 | H 2.29 | P 2.28 | I 2.16 | A 2.53 | F 2.14 | M 2.45 | R 2.53 | W 2.26 | S 2.51 | C 2.35 | D 2.54 | V 2.82
P1: K 3.65 | A 3.11 | Y 2.45 | R 2.96 | S 2.6 | V 2.22 | I 2.34 | L 1.93 | Q 2.86 | H 2.85 | W 1.78 | E 3.4 | F 2.61 | D 2.96 | T 2.75 | G 2.89 | M 2.75 | C 2.02 | N 3.42
K17: S 2.19 | A 2.89 | G 2.61 | Q 2.23 | R 2.59 | F 2.04 | C 2.52 | D 2.52 | H 3.2 | P 2.83 | L 1.96 | N 2.77 | M 2.39 | I 2.21 | E 2.53
Y3: D 2.82 | P 3.07 | K 2.63 | W 2.55 | G 3.39 | M 2.56 | I 2.76 | Q 2.74 | E 4 | T 2.65 | L 2.73 | S 2.8 | C 2.77 | F 2.93 | V 2.28 | A 3.39 | R 3.24 | N 2.84 | H 2.67
Y15: P 2.98 | D 3.06 | A 2.8 | W 2.79 | S 3.07 | C 2.73 | V 2.94 | Q 2.9 | F 2.73 | L 3.1 | H 4.01 | I 2.95 | R 3.31 | N 2.99 | K 3.49 | E 3.12 | T 3.13 | M 3.11 | G 3.47
R4: G 3.25 | P 2.72 | T 2.97 | W 2.01 | S 2.78 | L 2.89 | Q 2.79 | D 3.17 | H 2.96 | C 2.94 | K 2.79 | N 2.99 | A 3.38 | F 2.69 | V 2.77 | Y 2.66 | E 3.3 | I 2.67 | M 2.61
R2: D 3.03 | Y 2.64 | E 2.97 | A 2.96 | V 2.98 | C 2.41 | I 2.98 | N 2.85 | T 2 | Q 3 | G 3.47 | H 2.86 | S 3.03 | P 2.75 | W 3.25 | F 2.66 | L 2.76 | K 2.52 | M 2.49

Variants of: B2
Assay: as above
Details: c terminus: a fixed tail appended

Protein stability index: each site, then its substitutions
C20: V 2.2 | Y 2.23
I4: K 2
T10: C 2.11
K11: S 2.57
K5: R 1.82
G14: A 2.1
M7: Y 2.45
W8: H 2.24
L15: Q 2.29 | A 2.27
R16: C 1.59
H19: L 2.23
N3: L 1.54
Q6: C 2.29

From the supplement of paper PMC10567573
